# Measurements as given in the nanobody polyreactivity screen of Harvey et al. (2022).
# Test: yeast display, Sf9 membrane polyspecificity reagent, FACS + sequencing; frameworks hold sequencing errors
# Outline: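 Synthetic nanobody libraries on Saccharomyces cerevisiae BJ5465 were galactose-induced for 36–48 hours, stained 1 hour at 4 °C with 10% biotinylated, detergent-solubilized Sf9 membrane reagent and enriched on streptavidin microbeads. FACS then separated cells into low and high (top ~1%) gates by anti-HA (expression) and streptavidin (reagent binding) fluorescence. Genes were colony-PCR amplified, MiSeq 2 × 250 sequenced and CDR-length filtered. A clone's polyreactivity label is that of its gate of origin.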
row,Sequence,polyreactivity (PSR sort gate)
1,QVQRVESGGGLVQAGGSLRLSCAASGSTFYTNAMGWYRQAPGKERELVASITGGGSTYYADSVKGRFTISRDNAKNTVYLQMNSLKPEDTAVYYCAADNFGGGWEFDSWGQGTQVTVSS,low polyreactivity
2,QVQLVESGGGLVQAGGSLRLSCAASGSPYQQYGMGWYRQAPGKERELVAAITFSDGNTYYADSVTGRFTISRDNAKNTVYLQMNSLKPEDTAVYYCNAGYSYGVSYAEGGYWGQGTQVTVSS,low polyreactivity
3,QVHPVESGGGLVQAGGSIRLSCAASGRIFRRYTMGWYRQAPGHERELVAAITRGGGSTSYADSVKGRFTISRDNAKNTVYLQMNSLKPEDTAVYYCAAQARTSTIRGYDYWGQGTQVTVSS,high polyreactivity
4,QVQLVESGGGLGQAGGSLRLSCAASGSIFEGNGMGWYRPAPGKERELVAAITFRSGSTYYADSVKGRFTISRDNAKNTVYLQMNSLKPEDTAVYYCAADEYYQVSAYDYWGQGTQVTVSS,low polyreactivity
5,QVQLVESGGGLVQAGGSLRLSWAASGSTFYAYAMGCYRQSPGNERELVATISWSGGSTYADSVKGRFTISRDNAKYTVYLQMNSMTPEDTAVYYCNGSGAFYPTQVHPGYTLWSYDDWGQGTQVTVSS,low polyreactivity
6,QVQLVESGGGLVQAGGSLRLSCAASGLIFKGYDMGWYRQAPGKERELVAAISSGSTNYADSVKGRFTISRDNAKNTGYLQMNSLKPEDTAVYYCNADLGRATFYQRVFIERGGYWGQGTQVTVSS,low polyreactivity
7,QVQLVESGGCLVQAGGSLRLSCAASGRTFIGYAMGWYRQAPGKERELVAAISSTGGSTYYADSVKGRFTISRDNAKNTVYLQMNSLKPEDTAVYYCATDAARPPRTPDISDVSNFDYWGQGTQVTVSS,low polyreactivity
8,QVQLVESGGGLVQAGGSLRLSCAASGRTFHSYAMGWYRQAPGKERELVAAITSSGGSTYYADSVKGRFTISRDNAKNTVYLQMNSLKPEDTAVYYGNAYVRYGYGYYYWGQGTQVTVSS,high polyreactivity
9,QVQLVESGGGLVQAGGSLRLSCAASGIIFYVYAMGWYRQAPVKERELVAAISDTAGDTYYADSVKGRFTISRDNAKNTVYLQMNSLKPEDTAVYYCATDWFSYRGGIFDSWGQGTQVTVSS,low polyreactivity
10,QVQLVESGGCLVQAGGSLRLSCAASGRTYVVNAMGWYRHAPGKESELVAAITTGGSTYYADSVKGRFTISRENAKYTVYLQMNSLKPEDTAVYYCAADIYLYYIFDYWVDYDYWGQCTQVTVSS,high polyreactivity
11,QVQLVESGGGLVQAGGSLRLSCAASGRTFQIYAMGWYRQAPGKERELVAAISRRGGSTYYADSVKGRFTISRDNAKNTVYLQMNSLKPEDTAVYYCNVVHWRGEYSYAGYDYWGQGTQVTVSS,high polyreactivity
12,QVQLVESGGGLVQAGGSLRLSCAASGSIFIYYAMGWYRQAPGKERELVATISSDDRTNYTDSVKGRFTISRDNAKNTVYLQMNSLKPEDTAVYYCAADRYWAGRDGPEYDYWGQGTQVTVSS,low polyreactivity
13,QCQLVESGGGLVQAGGSLLLSCAASGFIFNRNAMGWSRQAPGKEREFVSAISTLGAGTYYADSVKGRFTISRDNAKNTVYLQMNSLKPEDTAVYYCAADIFRYGYYNRYSKVGYDYWGQGTQVTVSS,high polyreactivity
14,QVQLVESGGGLVQAGGSLRLSCAASGRTFVYNAMGWYRQAPGKERELVAAISSSGGSTRYADSVKGRFTISRDNAKNTVYLQMNSLKPEDTAVYYCNRLRYSNRYDSWGQGTQVTVSS,high polyreactivity
15,QVQLVESGGGLVQEGGSLRLSCAASGNIFTTYAMGWYRQAPGKERELVAAISRSGGRTNYADSVKGRFTISRDNAKNTVYLQMNSLKPEDTAVYYCNRALKPVDSYAYGYWGQGTQVTVSS,high polyreactivity
16,QVQLVESGGGLVQAGGSLRLSCAASGRIFTHYAMGWYRQAPGKERELVAAISRTGGTTNYADSVKGRFTISRDNAKNTVYLQMNSLKPEDTADYYCAAVGKGAKDYFKYYSWGQGTQVTVSS,high polyreactivity
17,QVQLVESGGGLVQAGGSLRLSCAASGSTFITYAMGWSRQAPGKERELVAAISDSGGDTYYADSVKGRFTISRDYAKNTVYLQMISLNPEDTAVFYCAAEDDRYVYGDMNYWGQGTQVTVSS,low polyreactivity
18,QGQLVESGGGLVQAGGSLRLSCAASGRIFYAYAMGWYRQAPGKERELGAAITSSGGRTYYADSVKGRFTISRDTAKNTVYLQLNSLKPEDTAVYYCAAYDYWGQGTQVTVSS,low polyreactivity
19,QVQLVESRGGLVQAGGSLRLSCAASGRIIPSYMGWYRQAPGKQRELVARISNTGSTYYADSVKGRFTISRDNAKNTVYLQMNRLKPEDTAVYYCAAVYIFRVFSHPPYDYWGQGTQVTVST,low polyreactivity
20,QVQLVESGGGLVQAGGILRLSCAASGSTFAGYAMGWYRQAPGKERELVATITYSGASTYYADSVKGRFTISRDNAKITVYLQMNSLKPEDTAVYYCGKKASYWWGYEYWGQGTQVTVSS,low polyreactivity
21,QVQLVESGGGLVQAGGSLRLICAASGSILSTYAMGWYREAPGKERELVADISGRVGSTYYADSVKGRFTISRDNAKNTDYLQMNSLKPEDTAVYYCAAALDYWPGYEYYYWGQGTQVTVSS,low polyreactivity
22,QVQLVESGGGLVLARGTLRLSCPASGFTFSRYAMGWYRQAPGKERELVAAISRTGGRTYYADSVKGRFTISRDNAKNTVYLQMNSLKPVDTAVYYCARLPVHSHLRQTYAMEYWGQGTQVTVSS,high polyreactivity

row,Sequence,polyreactivity (PSR sort gate)
1,QVQLVESGGGLVQAGGSLRLSCAASGITFQNYAMGWYRQAPGKEMELVAAITRSGGRTYYADSVKGRFTNSRDNANYTVYLQMNSLKQEDTAVYYCAVYGIGRPYWYDYWGQGTQVTVSS,high polyreactivity
2,QDQLVESGGGLVQAGGSLRLSCAASGRTFYYSAMGWSRQAPGKERELVATMSRGITNYADSVKGRFTISRDNAKNTVYLQMNSLKPEDTAVYYCAARDGWRSHFRGDYWGQGTQVTVSS,high polyreactivity
3,QVQLVESGGGLVQAGGSLRLSCAASGFIFFGEYVMGWYRQAPGKERELVAAITWSGGSTSYADSVKGRFTISRDNAKNTVYLQMNSLKPEDTAVYYCNAVSHFSTAIEFDYWGQGTQVTVSS,low polyreactivity
4,QVQLVESGGGLVQAGGSLRLSCAASGSTFSAYAMGWYRQAPGKERELVASNSYSGSSTYYADSVKGRFTISRDNAKNTVYLQMNSLKPEESAVYYCAAVYVRKGTRYGYWGQGTQVTVSS,high polyreactivity
5,QVQLVESGGGLVQAGGSLRLSCAASGITLSNYAMGWYRQAPVKEREFVAALTRSGDSTYYADSVKGRFTISRDNAQNTVYLQMNSLKPEDTAVYYCPAEEHRYTEVYPTSTTDEYDYRGQGTQVTVSS,low polyreactivity
6,QVQLVESGGGLVQAGGSLRLSCAASGRIFYGYAMGWYRQAPGKERELVAAITRSGGSTYYADSVKGRFTISRDTAKNTVYLQMNSLKPEDTAVYYCNAQWGYRTSFDYGYWGQGTQVTVSS,low polyreactivity
7,QVQLVESGGGLVQAGGSLRLSCAASGSTFDAYAMGWCRQAPGTERELVAAITNAGSTNYADSVKGRFTISRDNAKNTVYLQMNSLKPEDTAVYYCATDWYHRYLDGRYDYWVQGTQVTVSS,low polyreactivity
8,QVQLVESGGCLVQAGGSLRLSCAASGRIFDRNAMGWYRQAPGKERELVARIDPGDDTNYADSVKGRFTISRDNAKNTVYLQMNSLKPEDTAVYYCATDPDYVLYRTAYYEYDYWGQGTQVTVSS,low polyreactivity
9,QVQLVESGGGLVQAGGSLRLSCAASGSTFRGYAMGWSRQAPGKERELVATITSGGSTKFADSVKGRVTISRDNAKNTVYLQMNSLKPEDTAVYYFNAGPRSWSPYRHWVDFWGQGTQVTVSS,low polyreactivity
10,QVQLVESGGGLVQAGGSLRLSCAASGLTLGRNAMGWYRQAPGKERELVAAISYGGGSTYYADSVKGRFTISRDNAKNTVYLQMNCLKPEDTAVYYCAADGWRTYGYYEYDYWGQGTQVTVSS,low polyreactivity
11,QVQLVESGGGLVQAGGSLRLSCAASGSIFYRYAMGWYRQAPGKERELVAAISRSGASTYYADSVKGRFTISRDNAKNTVYLQMNSLKPEDTAVYYCNALFSKFTNRYDYWGQGTQVTVSS,high polyreactivity
12,QVQLVESGGGLFQAVGSLRLSCAASGFIFYDYAMGWYRQAPGKEMELVAAISKRGGSTYYADSVKGRFTISRDNAKNTVYLQMNSLKPEDTADYYCAAALWGWRYYYWGQGTQVTVSS,high polyreactivity
13,QVQLVESGGGLVQAGGSLRLSCAASGIIFLNNAMGLYIQAPGKERELVAVISFIGDSTYYADSVKGRFTISRDNSKNSVYLQMNSLKPEDTAVYYCAADYYLPYWFFVGYDYWGQGTQVTVSS,low polyreactivity
14,QVQLVESGGGLVQAGGSLRLSCAASGRTFTHNTMGWYRQAPGKERELVAAISRSGASTYYADSVKGRFTISRDNAKNTVYLQMNRLKPEDTAVYYCNAYSRPHFGYVVGTKSRHGYWGQGTQVTVSS,high polyreactivity
15,QVQLVESGGGLVQAGGSLRLSCAASGLTVNRYALGWYRQAPGKERELVASIRWSGGSTYYADSVKGRFTISRDNAKNTVYLQMNSLKPEDTAVYYCAKSIASAAYDSWGQGTQVTVSS,low polyreactivity
16,QVQLVESGGGLVQAGGSLRLSCAASGFLFDFYPLGWYRPAPGKDRELVAAITNGGSTYYADSVKGRFTISRDNAKNTDYLQMNSLKPEDTAVYYCAAYYRSRHHGYDSCGQGTQVTVSS,low polyreactivity
17,QVQLVESGGGLVQAGGSLRLSCAASGSIVRYNTMGWYRQAPGKERELVASIRIGGSTYYADSVKGRFTISRDNAKNTVYLQMNSLKAEDTAVYYCAVRPYRSAGGSVTRGAYYYWGQGTQVTVSS,high polyreactivity
18,QVQLVESGGGLVQAGGSLRLSCAASGYTFGFYAMGWYRQAPGKERELVAAISSSGVSTSYADSVKGRFTISRDNAKNTVYLHMNSLKPEDNAVYYCNAPSYYYAYDYWGQGTQVTVSS,high polyreactivity
19,QVHLVGSGGCLVQAGGSLRLSCAASGITFYYYVMGWYRQSPGKERELVAAINSGGSTNYADSVKGRFTISRDNAKNTVYLQMNSLKPEDTAVYYCNAYTVRSYRFDYWGQGTQVTVSS,high polyreactivity
20,QVQLVESGGGLVQAGGSLRLSCAASGLTFTTYAMGWYRQAPGKERELVAAISRRGSRTYYADSVKGRFTISRDNAKNTVYLQMNSLKPEDTAVYYCNALTGSFKTYSFDYWGQGTQVTVSS,high polyreactivity
21,QVQLVESGGGLVQAGGSLRLSCAASGRIFRTYAMGWYRQAPGKERELVAAINSGGTTYYADSVKGRFTISRDNAKNTVYLQMNSLKPEDTAVYYCNAEYYYAFLRLWYDYWGQGTQVTVSS,high polyreactivity
